The results in this text go back to patent publication US20120142585A1 (TEMPLE UNIVERSITY OF THE C0MMONWEALTH SYSTEM OF HIGHER …, published 2012).

B1: peptide of amino acid sequence Thr-Glu-Nva-Val-Ala-Leu-Ser-Arg-AcpNH2 [SEQ ID NO:4] (peptide)
peptide: TE[Nva]VALSR[Ahx]-NH2
modifications: N-terminus assumed
SMILES: CCC[C@H](NC(=O)[C@H](CCC(=O)O)NC(=O)[C@@H](N)[C@@H](C)O)C(=O)N[C@H](C(=O)N[C@@H](C)C(=O)N[C@@H](CC(C)C)C(=O)N[C@@H](CO)C(=O)N[C@@H](CCCNC(=N)N)C(=O)NCCCCCC(N)=O)C(C)C
B2: peptide of amino acid sequence Glu-Nva-Val-Ala-Leu-Ser-Arg-AcpNH2 [SEQ ID NO:51] (peptide)
peptide: E[Nva]VALSR[Ahx]-NH2
modifications: N-terminus assumed
SMILES: CCC[C@H](NC(=O)[C@@H](N)CCC(=O)O)C(=O)N[C@H](C(=O)N[C@@H](C)C(=O)N[C@@H](CC(C)C)C(=O)N[C@@H](CO)C(=O)N[C@@H](CCCNC(=N)N)C(=O)NCCCCCC(N)=O)C(C)C
B3: peptide of amino acid sequence alloThr-Glu-Nva-Val-Ala-Leu-Ser-Arg-AcpNH2 [SEQ ID NO:49] (peptide)
peptide: [aThr]E[Nva]VALSR[Ahx]-NH2
modifications: N-terminus assumed
SMILES: CCC[C@H](NC(=O)[C@H](CCC(=O)O)NC(=O)[C@@H](N)[C@H](C)O)C(=O)N[C@H](C(=O)N[C@@H](C)C(=O)N[C@@H](CC(C)C)C(=O)N[C@@H](CO)C(=O)N[C@@H](CCCNC(=N)N)C(=O)NCCCCCC(N)=O)C(C)C
B4: peptide of amino acid sequence Thr-Glu-Nva-Nva-Ala-Leu-Ser-Arg-NvaNH2 [SEQ ID NO:47] (peptide)
peptide: TE[Nva][Nva]ALSR[Nva]-NH2
modifications: N-terminus assumed
SMILES: CCC[C@H](NC(=O)[C@H](CCCNC(=N)N)NC(=O)[C@H](CO)NC(=O)[C@H](CC(C)C)NC(=O)[C@H](C)NC(=O)[C@H](CCC)NC(=O)[C@H](CCC)NC(=O)[C@H](CCC(=O)O)NC(=O)[C@@H](N)[C@@H](C)O)C(N)=O

Where no end group is shown, it is not given here. [ ]: non-standard residue; d: D form. NMeR = CN[C@@H](CCCNC(=N)N)C(=O)O; aThr = C[C@H](O)[C@H](N)C(=O)O; Nva = CCC[C@H](N)C(=O)O; Ahx = NCCCCCC(=O)O; βAla = NCCC(=O)O Some results are limits rather than exact numbers.

One experiment concerns the target T1, leptin receptor (ObR) naturally expressed on MCF-7, LN229 and LN18 cells (human). Description: cell-based or functional assay.
For the molecule B1, the “IC50, proliferation and XTT metabolic activity assays, LN229 and MCF-7 cells with leptin” value lay within 2 to 3 nM.

The target of another experiment is T1, leptin receptor (ObR) naturally …. Put plainly: cell-based or functional assay. This is another data set of the same source.
Turning to B2, the “EC50, proliferation of ObR-positive cancer cells in the absence of leptin” value (from here on “EC50, proliferation”) was more than 500 nM; the “IC50, proliferation of ObR-positive cancer cells in the presence of leptin (6 nM)” value (“IC50, proliferation … (6 nM)” for short) came to 50 nM; the “IC100, proliferation of ObR-positive cancer cells in the presence of leptin (6 nM)” value (“IC100, proliferation” for short) worked out at 100 nM.
As for B3, the “EC50, proliferation” value is more than 1000 nM; the “IC50, proliferation … (6 nM)” value worked out at 0.2 nM; the “IC100, proliferation” value turned out to be 5 nM.
The matching figures for B1: more than 1000 nM, 5 nM and 50 nM.
As to B4, the “EC50, proliferation” value is more than 1000 nM and the “IC50, proliferation … (6 nM)” value turned out to be 1000 nM.
As to [dS]E[Nva]VALS[NMeR][βAla]-NH2 [peptide of amino acid sequence (D)-Ser-Glu-Nva-Val-Ala-Leu-Ser-N-MeArg-bAlaNH2 [SEQ ID NO:6]], the “EC50, proliferation” value was more than 1000 nM; the “IC50, proliferation … (6 nM)” value was determined as 0.2 nM; the “IC100, proliferation” value is less than 1 nM.
